Here are results for one protein from PMC8524200, “Structural studies of codeinone reductase reveal novel insights into aldo-keto reductase function in benzylisoquinoline alkaloid biosynthesis” (The Journal of Biological Chemistry, 2021).

The data set concerns the molecule itself. Description: SEC; Superdex 200 (2.4 ml), 25 mM Tris-HCl pH 7.5, 150 mM KCl, 0.5 mM EDTA; COR1.3 0.5 mg/ml diluted in running buffer and incubated overnight at room temperature (oxidizing conditions); also run with 1 mM DTT in the buffer (reducing conditions: dimer destabilized).

B1: codeinone reductase COR1.3 isoform (enzyme, Papaver somniferum)
chain: MESNGVPMITLSSGIRMPALGMGTAETMVKGTEREKLAFLKAIEVGYRHFDTAAAYQSEECLGEAIAEALQLGLIKSRDELFITSKLWCADAHADLVLPALQNSLRNLKLDYLDLYLIHHPVSLKPGKFVNEIPKDHILPMDYKSVWAAMEECQTLGFTRAIGVCNFSCKKLQELMAAAKIPPVVNQVEMSPTLHQKNLREYCKANNIMITAHSVLGAICAPWGSNAVMDSKVLHQIAVARGKSVAQVSMRWVYQQGASLVVKSFNEGRMKENLKIFDWELTAENMEKISEIPQSRTSSADFLLSPTGPFKTEEEFWDEKD
modifications: intermolecular disulfide bond between Cys-220 of each protomer
notes: codeinone reductase isoform COR1.3, Papaver somniferum (AAF13738; Q9SQ68.1); The methods for size-exclusion chromatography say only 'purified COR1.3'; also called apo-COR
For B1, the “stoichiometry N” value was 2.
